Like-named read-outs stand apart in the source and are kept apart here.
Legend:
[1] = target: T1, human CDH6 on cells (human, UniProt P55285 54-790); test: FACS on OVCAR3 cells, histogram table
T1 sequence: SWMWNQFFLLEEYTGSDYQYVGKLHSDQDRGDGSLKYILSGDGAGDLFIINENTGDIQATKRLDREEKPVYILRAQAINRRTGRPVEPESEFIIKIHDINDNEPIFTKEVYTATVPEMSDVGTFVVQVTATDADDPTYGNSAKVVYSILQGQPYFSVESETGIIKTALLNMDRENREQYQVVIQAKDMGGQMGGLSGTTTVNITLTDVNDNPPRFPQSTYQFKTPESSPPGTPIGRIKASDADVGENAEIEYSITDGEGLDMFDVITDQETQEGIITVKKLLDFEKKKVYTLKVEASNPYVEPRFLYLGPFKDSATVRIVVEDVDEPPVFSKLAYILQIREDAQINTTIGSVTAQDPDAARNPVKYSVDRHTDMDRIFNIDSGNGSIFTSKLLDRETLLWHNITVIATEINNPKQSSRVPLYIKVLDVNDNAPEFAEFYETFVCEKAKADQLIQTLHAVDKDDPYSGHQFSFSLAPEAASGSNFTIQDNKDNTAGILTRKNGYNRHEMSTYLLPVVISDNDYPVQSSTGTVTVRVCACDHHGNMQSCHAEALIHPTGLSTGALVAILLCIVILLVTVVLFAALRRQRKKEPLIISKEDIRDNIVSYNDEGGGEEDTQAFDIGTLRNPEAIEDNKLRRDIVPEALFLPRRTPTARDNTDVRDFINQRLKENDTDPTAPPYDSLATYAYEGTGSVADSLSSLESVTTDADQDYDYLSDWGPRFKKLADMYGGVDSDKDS

[2] = target: T1, human CDH6 on cells; test: FACS on OVCAR8-CDH6+ cells, histogram table
[3] = target: T2, hCDH6aa54-615 APPavi (human, UniProt P55285 54-615); test: SPR binning
T2 sequence: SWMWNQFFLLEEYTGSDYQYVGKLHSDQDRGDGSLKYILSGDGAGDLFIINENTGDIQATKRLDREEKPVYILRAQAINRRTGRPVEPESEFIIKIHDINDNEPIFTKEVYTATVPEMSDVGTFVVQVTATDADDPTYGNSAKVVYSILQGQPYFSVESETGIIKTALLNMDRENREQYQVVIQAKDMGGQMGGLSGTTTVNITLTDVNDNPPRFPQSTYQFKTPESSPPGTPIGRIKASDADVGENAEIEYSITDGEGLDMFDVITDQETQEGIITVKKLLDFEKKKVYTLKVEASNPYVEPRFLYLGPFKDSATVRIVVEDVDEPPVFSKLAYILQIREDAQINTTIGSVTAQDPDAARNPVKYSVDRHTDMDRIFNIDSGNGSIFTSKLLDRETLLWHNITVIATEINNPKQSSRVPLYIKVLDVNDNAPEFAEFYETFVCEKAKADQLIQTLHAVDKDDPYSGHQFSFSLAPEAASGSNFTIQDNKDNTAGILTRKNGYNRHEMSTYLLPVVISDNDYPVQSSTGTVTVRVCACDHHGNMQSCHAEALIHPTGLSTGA

[4] = target: T2, hCDH6aa54-615 APPavi; test: SPR binning; remark: listed apart in the source
[5] = target: T2, hCDH6aa54-615 APPavi; test: SPR binning; remark: listed apart in the source
[6] = target: T3, CDH6 wt (human, UniProt P55285 54-615); test: ELISA on coated CDH6-wt
T3 sequence: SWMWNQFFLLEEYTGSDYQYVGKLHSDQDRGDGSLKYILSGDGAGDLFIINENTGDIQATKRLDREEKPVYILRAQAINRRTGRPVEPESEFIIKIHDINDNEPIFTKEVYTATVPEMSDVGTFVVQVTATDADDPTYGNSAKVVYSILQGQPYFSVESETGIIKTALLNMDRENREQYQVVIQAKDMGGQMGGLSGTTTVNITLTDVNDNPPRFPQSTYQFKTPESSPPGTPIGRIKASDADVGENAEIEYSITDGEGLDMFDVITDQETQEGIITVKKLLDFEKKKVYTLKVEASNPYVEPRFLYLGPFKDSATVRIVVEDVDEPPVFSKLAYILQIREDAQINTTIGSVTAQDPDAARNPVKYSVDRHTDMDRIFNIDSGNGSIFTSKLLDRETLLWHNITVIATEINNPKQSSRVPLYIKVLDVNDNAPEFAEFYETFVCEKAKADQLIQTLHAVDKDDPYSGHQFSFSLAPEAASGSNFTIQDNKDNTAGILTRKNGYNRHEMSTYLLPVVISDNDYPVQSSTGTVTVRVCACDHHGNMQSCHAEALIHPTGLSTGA

[7] = target: T2, hCDH6aa54-615 APPavi; test: SPR binning; remark: listed apart in the source
[8] = target: T2, hCDH6aa54-615 APPavi; test: SPR binning; remark: listed apart in the source
[9] = target: T2, hCDH6aa54-615 APPavi; test: SPR binning; remark: listed apart in the source
[10] = target: T2, hCDH6aa54-615 APPavi; test: SPR binning; remark: listed apart in the source
[11] = target: T4, mouse CDH6 on cells (mouse, UniProt P97326 54-790); test: FACS on CHO-mouseCDH6 cells
T4 sequence (looked up): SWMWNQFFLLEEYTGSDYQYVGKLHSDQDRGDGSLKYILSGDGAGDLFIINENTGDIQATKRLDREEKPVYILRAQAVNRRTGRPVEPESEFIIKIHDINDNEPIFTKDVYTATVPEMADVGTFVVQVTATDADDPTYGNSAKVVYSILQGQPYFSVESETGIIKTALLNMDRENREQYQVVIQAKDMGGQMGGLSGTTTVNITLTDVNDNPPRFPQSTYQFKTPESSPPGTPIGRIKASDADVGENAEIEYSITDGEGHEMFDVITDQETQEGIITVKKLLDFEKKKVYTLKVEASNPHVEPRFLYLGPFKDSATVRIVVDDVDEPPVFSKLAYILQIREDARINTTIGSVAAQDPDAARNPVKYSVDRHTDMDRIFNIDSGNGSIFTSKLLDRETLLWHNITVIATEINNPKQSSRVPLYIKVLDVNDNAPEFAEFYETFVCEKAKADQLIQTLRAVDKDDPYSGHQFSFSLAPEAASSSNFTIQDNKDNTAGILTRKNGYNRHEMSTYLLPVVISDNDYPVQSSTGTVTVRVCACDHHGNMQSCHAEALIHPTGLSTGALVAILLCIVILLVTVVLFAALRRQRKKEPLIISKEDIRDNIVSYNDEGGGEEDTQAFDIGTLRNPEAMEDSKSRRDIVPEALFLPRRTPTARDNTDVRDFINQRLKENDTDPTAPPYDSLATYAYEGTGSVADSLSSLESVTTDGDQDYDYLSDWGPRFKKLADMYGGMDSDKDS

[12] = target: T1, human CDH6 on cells; test: FACS on OVCAR3 cells
[13] = target: T1, human CDH6 on cells; test: FACS on CHO-TO-humanCDH6 cells plus tetracycline
[14] = target: T5, rat CDH6 on cells (rat, UniProt P55280 54-789); test: FACS on CHO-ratCDH6 cells
T5 sequence (looked up): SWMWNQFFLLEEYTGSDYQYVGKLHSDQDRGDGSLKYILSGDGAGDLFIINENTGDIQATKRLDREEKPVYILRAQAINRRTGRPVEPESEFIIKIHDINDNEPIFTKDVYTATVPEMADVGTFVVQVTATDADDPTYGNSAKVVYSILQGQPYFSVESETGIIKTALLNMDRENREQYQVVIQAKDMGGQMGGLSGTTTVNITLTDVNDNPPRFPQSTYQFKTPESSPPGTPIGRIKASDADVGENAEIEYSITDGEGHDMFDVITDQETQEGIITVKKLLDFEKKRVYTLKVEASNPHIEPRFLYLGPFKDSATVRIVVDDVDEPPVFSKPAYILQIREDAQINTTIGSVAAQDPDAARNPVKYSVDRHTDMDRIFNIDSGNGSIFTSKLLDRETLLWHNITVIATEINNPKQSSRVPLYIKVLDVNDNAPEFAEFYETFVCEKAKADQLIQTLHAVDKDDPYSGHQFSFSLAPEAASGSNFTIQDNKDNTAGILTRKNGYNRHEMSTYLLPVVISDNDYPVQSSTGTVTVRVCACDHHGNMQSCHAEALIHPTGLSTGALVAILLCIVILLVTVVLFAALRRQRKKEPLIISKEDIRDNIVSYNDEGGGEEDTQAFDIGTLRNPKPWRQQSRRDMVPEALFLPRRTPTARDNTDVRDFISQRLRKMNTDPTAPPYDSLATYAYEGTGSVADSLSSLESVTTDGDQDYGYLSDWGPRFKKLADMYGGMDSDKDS

[15] = target: T6, cynomolgus CDH6 on cells (cynomolgus, UniProt A0A2K5TW62 54-790); test: FACS on CHO-cynoCDH6 cells
T6 sequence: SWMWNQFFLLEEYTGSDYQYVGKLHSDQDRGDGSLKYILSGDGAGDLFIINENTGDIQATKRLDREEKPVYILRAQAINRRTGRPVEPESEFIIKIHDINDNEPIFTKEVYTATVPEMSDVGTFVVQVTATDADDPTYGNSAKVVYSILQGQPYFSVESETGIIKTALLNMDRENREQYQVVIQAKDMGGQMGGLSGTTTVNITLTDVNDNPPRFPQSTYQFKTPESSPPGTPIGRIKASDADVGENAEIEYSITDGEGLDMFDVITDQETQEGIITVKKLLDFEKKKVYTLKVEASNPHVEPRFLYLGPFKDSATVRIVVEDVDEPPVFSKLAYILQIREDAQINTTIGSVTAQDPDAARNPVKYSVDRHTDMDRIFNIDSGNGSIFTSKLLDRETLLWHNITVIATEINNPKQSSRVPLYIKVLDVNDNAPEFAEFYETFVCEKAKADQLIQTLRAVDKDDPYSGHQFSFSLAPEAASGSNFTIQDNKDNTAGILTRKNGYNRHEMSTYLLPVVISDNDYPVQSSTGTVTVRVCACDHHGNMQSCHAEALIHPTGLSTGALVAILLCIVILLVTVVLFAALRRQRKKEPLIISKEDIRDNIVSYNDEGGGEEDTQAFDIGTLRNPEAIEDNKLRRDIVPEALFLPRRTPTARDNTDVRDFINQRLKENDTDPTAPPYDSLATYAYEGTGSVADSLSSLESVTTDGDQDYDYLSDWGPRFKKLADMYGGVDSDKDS

[16] = target: T1, human CDH6 on cells; test: FACS on OVCAR8-CDH6+ cells, EC50 [M] table

control IgG-sulfo-SPDB-DM4 (antibody)
Geom. Mean Fluorescence [1]: 60.4
Geom. Mean Fluorescence [2]: 56.5

B1: NOV0710 (antibody, human IgG1, kappa, V domains shown)
VH: QVQLLESGGGLVQPGGSLRLSCAASGFTFSSYAMSWVRQAPGKGLEWVSVIRSSGSSTYYADSVKGRFTISRDNSKNTLYLQMNSLRAEDTAVYYCARGGGYFDYWGQGTLVTVSS
VL: DIQMTQSPSSLSASVGDRVTITCRASQSISLWLNWYQQKPGKAPKLLIYAASTLQSGVPSRFSGSGSGTDFTLTISSLQPEDFATYYCQQYYTSPYTFGQGTKVEIKR
response of secondary antibody on primary antibody-CDH6 complex [3]: 15
response of secondary antibody on primary antibody-CDH6 complex [4]: -3.56
response of secondary antibody on primary antibody-CDH6 complex [5]: 21.9
EC50 (read off the curve) [6]: ~200 nM
response of secondary antibody on primary antibody-CDH6 complex [7]: 10.6
response of secondary antibody on primary antibody-CDH6 complex [8]: -2.17
response of secondary antibody on primary antibody-CDH6 complex [9]: 8.84
response of secondary antibody on primary antibody-CDH6 complex [10]: 32.7

B2: NOV0712-sulfo-SPDB-DM4 (antibody, human IgG1, kappa, V domains shown)
VH: QVQLLESGGGLVQPGGSLRLSCAASGFTFSSHGMHWVRQAPGKGLEWVSVISGSGSNTGYADSVKGRFTISRDNSKNTLYLQMNSLRAEDTAVYYCARQWGSYAFDSWGQGTLVTVSS
VL: DIQMTQSPSSLSASVGDRVTITCRASQSISSYLNWYQQKPGKAPKLLIYAVSTLQSGVPSRFSGSGSGTDFTLTISSLQPEDFATYYCQQSGTFPPTTFGQGTKVEIKR
modifications: sulfo-SPDB-DM4 on primary amines, sites not stated
EC50 (read off the curve) [11]: ~0.7 nM
EC50 (read off the curve) [12]: ~0.4 nM
EC50 (read off the curve) [13]: ~0.5 nM
EC50 (read off the curve) [14]: ~0.7 nM
EC50 (read off the curve) [15]: ~0.7 nM
EC50 [16]: 0.715 nM
